In this assay the target is full-length single chain (FLSC) gp120-CD4 chimeric polypeptide (HIV-1 BaL; human). As to the kind of experiment: flow cytometry on L1.2/X4 cells.

The results in this text go back to patent EP1137786B1 (UNIVERSITY OF MARYLAND BIOTECHNOLOGY INSTITUTE, dated 2007).

B1: CXCR4 (receptor)
chain: MEGISIYTSDNYTEEMGSGDYDSMKEPCFREENANFNKIFLPTIYSIIFLTGIVGNGLVILVMGYQKKLRSMTDKYRLHLSVADLLFVITLPFWAVDAVANWYFGNFLCKAVHVIYTVNLYSSVLILAFISLDRYLAIVHATNSQRPRKLLAEKVVYVGVWIPALLLTIPDFIFANVSEADDRYICDRFYPNDLWVVVFQFQHIMVGLILPGIVILSCYCIIISKLSHSKGHQKRKALKTTVILILAFFACWLPYYIGISIDSFILLEIIKQGCEFENTVHKWISITEALAFFHCCLNPILYAFLGAKFKTSAQHALTSVSRGSSLKILSKGKRGGHSSVSTESESSSFHSS
notes: whole, on cells; also called X4; L1.2/X4 cells
With B1, the binding result was “no binding”.
